From patent publication US20250154256A1 (AUGUSTA UNIVERSITY RESEARCH INSTITUTE, published 2025)
Where two headings read alike, the source gives them in different places.

T1: mouse PD-1 (mouse, UniProt Q02242 25-167, limits assumed)
T1 construct: Analyte in solution in the Biacore runs
T1 sequence: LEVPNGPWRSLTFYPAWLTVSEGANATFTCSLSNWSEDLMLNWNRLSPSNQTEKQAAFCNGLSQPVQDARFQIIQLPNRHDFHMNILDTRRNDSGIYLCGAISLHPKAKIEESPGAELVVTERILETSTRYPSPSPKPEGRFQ

B1: monoclonal antibody 4G9 (antibody, mouse IgG2b, kappa, V domains shown)
VH: QIQLVQSGPELKKPGETVKISCKASGYTFTTYGMTWVKQAPGKGLKWMGWINTYSGVPTYADDFKGRFAFSLETSASTAYLQINNLKNEDTATYFCARGGRGFAYWGQGTLVTVSA
VL: DILLTQSPAILSVSPGERVSFSCRASQSIGTSIHWYQQRTNGSPRLLIKYASESISGIPSRFSGSGSGTDFTLSINSVESEDIADYYCQQSNSWPYTFGGGTKLEIKR
notes: also called 4G9 anti-PD-1 antibody
B2: monoclonal antibody 5C2 (antibody, IgG1, V domains shown)
VH: QVQLQQPGAELVKPGASVKVSCKASGYTFTSYWMHWVKQRPGQGLEWIGRIHPSDSDTNYNQKFKGKATLTVDKSSSTAYMQLSSLTSEDSAVYYCAPYGNYASGFAYWGQGTLVTVSA
VL: DIVMTQSHKFMSTSVGDRVSITCKASQDVSTAVAWYQQKPGQSPKLLIYWASTRHTGVPDRFTGSGSGTDYTLTISSVQAEDLALYYCQQHYSTPWTFGGGTKLEIKR
notes: the two clones are reported with different SPR values; also called 5C2 anti-PD-1 antibody
B3: monoclonal antibody 4C12 (antibody, mouse IgG1, kappa, V domains shown)
VH: B2 VH
VL: B2 VL
notes: also called 4C12 anti-PD-1 antibody

How the values were obtained:
mouse PD-1 [1] = target: T1, mouse PD-1; assay: SPR (Biacore), antibody as ligand, PD-1 as analyte
human PD-1 [2] = target: T2, human PD-1 (human, UniProt Q15116 25-167, limits assumed); assay: SPR (Biacore), antibody as ligand, PD-1 as analyte
T2 construct: Analyte in solution in the Biacore runs; also called programmed cell death protein 1
T2 sequence (Q15116 25-167 limits assumed): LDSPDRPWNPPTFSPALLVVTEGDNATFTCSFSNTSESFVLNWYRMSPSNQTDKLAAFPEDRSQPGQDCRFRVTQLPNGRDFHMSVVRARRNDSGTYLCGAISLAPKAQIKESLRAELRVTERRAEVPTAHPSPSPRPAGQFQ

human PD-1-Fc = target: T3, human PD-1-Fc (human, UniProt Q15116 25-170, limits assumed); assay: ELISA, binding to human PD-1-Fc
T3 construct: ELISA antigen
T3 sequence (Q15116 25-170 limits assumed): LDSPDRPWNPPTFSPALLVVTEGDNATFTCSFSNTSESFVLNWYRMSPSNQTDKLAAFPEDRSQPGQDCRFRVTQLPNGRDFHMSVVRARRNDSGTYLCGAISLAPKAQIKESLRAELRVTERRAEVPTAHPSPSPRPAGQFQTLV

human PD-1 [3] = target: T2, human PD-1; assay: SPR (Biacore), antibody as ligand, PD-1 as analyte; remark: listed apart in the source
mouse PD-1 [4] = target: T1, mouse PD-1; assay: SPR (Biacore), antibody as ligand, PD-1 as analyte; remark: listed apart in the source
human PD-1 [5] = target: T2, human PD-1; assay: SPR (Biacore), antibody as ligand, PD-1 as analyte; remark: listed apart in the source

Binder | Ka (mouse PD-1 [1]) | Kd (mouse PD-1 [1]) | koff (mouse PD-1 [1]) | kon (mouse PD-1 [1]) | Ka (human PD-1 [2]) | Kd (human PD-1 [2]) | EC50 (read off the curve) (human PD-1-Fc) | Ka (human PD-1 [3]) | Kd (human PD-1 [3]) | Ka (mouse PD-1 [4]) | Kd (mouse PD-1 [4]) | Ka (human PD-1 [5]) | Kd (human PD-1 [5])
B1 | 194000 M⁻¹ | 5150 nM | 0.0103 s⁻¹ | 2000 M⁻¹ s⁻¹ | 952000 M⁻¹ | 1050 nM | ~0.5 µg/mL | – | – | – | – | – | –
B2 | – | – | – | – | – | – | ~1 µg/mL | 202000 M⁻¹ | 4950 nM | 1.18e+06 M⁻¹ | 850 nM | – | –
B3 | – | – | – | – | – | – | – | – | – | – | – | 3.14e+06 M⁻¹ | 319 nM
